# From US20160000865A1 (REGENTS OF THE UNIVERSITY OF MICHIGAN, published 2016)
# B1: Extracellular Ig2 domain of Robo1 fused with GST (other, human, UniProt Q9Y6N7 170-257, looked up)
# chain: DDFRQNPSDVMVAVGEPAVMECQPPRGHPEPTISWKKDGSPLDDKDERITIRGGKLMITYTRKSDAGKYVCVGTNMVGERESEVAELT
# notes: domain: extracellular Ig2 domain; also called GST-Ig2; not shown: glutathione S-transferase of the PGEX6P1 vector
# B2: Extracellular Ig5 domain of Robo1 fused with GST (other, human, UniProt Q9Y6N7 455-541, looked up)
# chain: PVIRQGPVNQTVAVDGTFVLSCVATGSPVPTILWRKDGVLVSTQDSRIKQLENGVLQIRYAKLGDTGRYTCIASTPSGEATWSAYIE
# notes: domain: extracellular Ig5 domain; also called GST-Ig5; not shown: glutathione S-transferase of the PGEX6P1 vector
# B3: Native Rspo1 of mouse small intestinal crypts (ligand, UniProt Q9Z132 21-265, looked up)
# chain: SRGIKGKRQRRISAEGSQACAKGCELCSEVNGCLKCSPKLFILLERNDIRQVGVCLPSCPPGYFDARNPDMNKCIKCKIEHCEACFSHNFCTKCQEALYLHKGRCYPACPEGSTAANSTMECGSPAQCEMSEWSPWGPCSKKRKLCGFRKGSEERTRRVLHAPGGDHTTCSDTKETRKCTVRRTPCPEGQKRRKGGQGRRENANRHPARKNSKEPRSNSRRHKGQQQPQPGTTGPLTSVGPTWAQ
# B4: Endogenous Robo1 of mouse small intestinal crypts (receptor, UniProt O89026 20-1612, looked up)
# chain: SRLRQEDFPPRIVEHPSDLIVSKGEPATLNCKAEGRPTPTIEWYKGGERVETDKDDPRSHRMLLPSGSLFFLRIVHGRKSRPDEGVYICVARNYLGEAVSHNASLEVAILRDDFRQNPSDVMVAVGEPAVMECQPPRGHPEPTISWKKDGSPLDDKDERITIRGGKLMITYTRKSDAGKYVCVGTNMVGERESEVAELTVLERPSFVKRPSNLAVTVDDSAEFKCEARGDPVPTVRWRKDDGELPKSRYEIRDDHTLKIRKVTAGDMGSYTCVAENMVGKAEASATLTVQEPPHFVVKPRDQVVALGRTVTFQCEATGNPQPAIFWRREGSQNLLFSYQPPQSSSRFSVSQTGDLTITNVQRSDVGYYICQTLNVAGSIITKAYLEVTDVIADRPPPVIRQGPVNQTVAVDGTLILSCVATGSPAPTILWRKDGVLVSTQDSRIKQLESGVLQIRYAKLGDTGRYTCTASTPSGEATWSAYIEVQEFGVPVQPPRPTDPNLIPSAPSKPEVTDVSKNTVTLSWQPNLNSGATPTSYIIEAFSHASGSSWQTAAENVKTETFAIKGLKPNAIYLFLVRAANAYGISDPSQISDPVKTQDVPPTSQGVDHKQVQRELGNVVLHLHNPTILSSSSVEVHWTVDQQSQYIQGYKILYRPSGASHGESEWLVFEVRTPTKNSVVIPDLRKGVNYEIKARPFFNEFQGADSEIKFAKTLEEAPSAPPRSVTVSKNDGNGTAILVTWQPPPEDTQNGMVQEYKVWCLGNETKYHINKTVDGSTFSVVIPSLVPGIRYSVEVAASTGAGPGVKSEPQFIQLDSHGNPVSPEDQVSLAQQISDVVRQPAFIAGIGAACWIILMVFSIWLYRHRKKRNGLTSTYAGIRKVPSFTFTPTVTYQRGGEAVSSGGRPGLLNISEPATQPWLADTWPNTGNNHNDCSINCCTAGNGNSDSNLTTYSRPADCIANYNNQLDNKQTNLMLPESTVYGDVDLSNKINEMKTFNSPNLKDGRFVNPSGQPTPYATTQLIQANLSNNMNNGAGDSSEKHWKPPGQQKPEVAPIQYNIMEQNKLNKDYRANDTIPPTIPYNQSYDQNTGGSYNSSDRGSSTSGSQGHKKGARTPKAPKQGGMNWADLLPPPPAHPPPHSNSEEYNMSVDESYDQEMPCPVPPAPMYLQQDELQEEEDERGPTPPVRGAASSPAAVSYSHQSTATLTPSPQEELQPMLQDCPEDLGHMPHPPDRRRQPVSPPPPPRPISPPHTYGYISGPLVSDMDTDAPEEEEDEADMEVAKMQTRRLLLRGLEQTPASSVGDLESSVTGSMINGWGSASEEDNISSGRSSVSSSDGSFFTDADFAQAVAAAAEYAGLKVARRQMQDAAGRRHFHASQCPRPTSPVSTDSNMSAVVIQKARPAKKQKHQPGHLRREAYADDLPPPPVPPPAIKSPTVQSKAQLEVRPVMVPKLASIEARTDRSSDRKGGSYKGREALDGRQVTDLRTNPSDPREAQEQPNDGKGRGTRQPKRDLPPAKTHLGQEDILPYCRPTFPTSNNPRDPSSSSSMSSRGSGSRQREQANVGRRNMAEMQVLGGFERGDENNEELEETES
# notes: also called native Robo1
# B5: Carboxyl-terminal segment of Rspo1 including one TSR repeat, fused with 6-His tag (ligand, human, UniProt Q2MKA7 147-263, looked up)
# chain: QCEMSEWSPWGPCSKKQQLCGFRRGSEERTRRVLHAPVGDHAACSDTKETRRCTVRRVPCPEGQKRRKGGQGRRENANRNLARKESKEAGAGSRRRKGQQQQQQQGTVGPLTSAGPA
# notes: domain: carboxyl-terminus of Rspo1 containing one TSR repeat; also called rRspo1-C; Rspo1-C; not shown: 6-His tag of the PETM vector
# Experiments:
# [1] = target: T1, Recombinant human Rspo1 fused with 6-His (His) tag expressed in Sf9 insect cells (human, UniProt Q2MKA7 21-263); test: glutathione-Sepharose pulldown, immunoblot
# T1 construct: Baculovirus expression; also called rRspo1; R-spondin 1; not shown: 6-His tag
# Description: (§1) To confirm our initial findings, various deletion mutants of Robo1 fused with hemagglutin (HA) tag were employed (FIG. 15B) (see, e.g., Wong, K., et al., (2001) Cell 107, 209-221). Recombinant human Rspo1 fused with 6-His (His) tag expressed in Sf9 insect cells (rRspo1; FIG. 15C and FIG. 17B) were also purified. […] Following incubation, immunoprecipitation was performed by the anti-HA Ab, followed by immunoblotting with the Abs for rRspo1 (His) and Robo1 (HA). […] Compared to human IgG (hIgG) bound Protein A (Pro-A) beads, recombinant Robo1-Fc chimera (rRobo1-Fc; FIG. 17C) bound Pro-A beads precipitated rRspo1 (His; FIG. 15E and FIG. 16C). Additionally, rRobo1-Fc bound Pro-A beads precipitated purified recombinant Rspo1-N (rRspo1-N), but not recombinant Rspo1-C (rRspo1-C; FIGS. 15C and F and FIGS. 16D and 17B). To determine which extracellular Ig domains of Robo1 could recognize Rspo1, recombinant extracellular Ig domains 1-5 of Robo1 fused with glutathione S-transferase were constructed, expressed and purified (GST-Ig1-5; FIG. 15B and FIG. 16D).
# For the pulldown assay, 3 μg of the appropriate purified GST-tagged fusion protein and isolated His-tagged fusion protein were incubated with 20 μl glutathione Sepharose beads (GE Healthcare Biosciences) in PBS containing 1% BSA at 4° C. for 2 h. […]
# [2] = target: B4; test: co-immunoprecipitation from mouse intestinal crypt lysates, immunoblot
# Description: 293 cells were co-transfected with the plasmids of Robo1 or Robo1-dCC3 and LRP6. Transfected Robo1 was immunoprecipitated by the anti-HA Ab, followed by immunoblotting for LRP6 (myc) and Robo1 (HA). (L) LRP6 interacts with CC3. 293 cells transfected with the LRP6 plasmid were incubated with rCC0/1, rCC2 and rCC3. After washing, transfected LRP6 was immunoprecipitated by the anti-HA Ab, followed by immunoblotting for rCC0/1, rCC2 and rCC3 (His) and LRP6 (myc). (M) LRP6 M3 binds to CC3. The glutathione-Sepharose beads were incubated with the GST-M1-3. After washing, they were incubated with rCC3, followed by immunoblotting for rCC3 (His) and rGST-M1-3. (N and O) Transfected Robo1 enhances LRP6 binding to LGR5. 293 cells were co-transfected with the plasmids of LGR5 and LRP6, in the presence or absence of the Robo1 plasmid (N). Alternatively, 293 cells were co-transfected with the plasmids of LGR5, LRP6 and Robo1, followed by infection with Ad-GFP or Ad-CC3 (0). Lysates of these transfectants were immunoprecipitate for LRP6 (myc) and immunoblotted for LGR5 (flag), LRP6 (myc) and Robo1 (HA), respectively. (P) Endogenous Robo1 promotes LRP6 association with LGR5. […]
# This example describes Rspo1 binds to extracellular Robo1. […] Indeed, the intestinal expression of Rspo1 was detected in the tissue sections of adult small intestine (FIG. 14). […]
# [3] = target: T2, Native LRP6 of mouse small intestinal crypts (mouse, UniProt O88572 20-1613); test: immunoprecipitation of endogenous Robo1 from crypt lysates of C57 small intestines, immunoblot (FIG. 15H)
# T2 construct: also called endogenous LRP6; endogenous Lrp6
# [4] = target: T3, Recombinant human Robo1 encoding the extracellular five Ig-like domains fused with the Fc domains of human … (human, UniProt Q9Y6N7 26-540; P01857 99-330 = IgG part); test: Protein A bead pulldown, immunoblot for His
# T3 construct: domain: extracellular five Ig domains (1-1621 bp);domain: Fc domains of human IgG1; also called Robo1-Fc; rRobo1-Fc
# Description: as §1
# T2 sequence (O88572 20-1613 limits assumed): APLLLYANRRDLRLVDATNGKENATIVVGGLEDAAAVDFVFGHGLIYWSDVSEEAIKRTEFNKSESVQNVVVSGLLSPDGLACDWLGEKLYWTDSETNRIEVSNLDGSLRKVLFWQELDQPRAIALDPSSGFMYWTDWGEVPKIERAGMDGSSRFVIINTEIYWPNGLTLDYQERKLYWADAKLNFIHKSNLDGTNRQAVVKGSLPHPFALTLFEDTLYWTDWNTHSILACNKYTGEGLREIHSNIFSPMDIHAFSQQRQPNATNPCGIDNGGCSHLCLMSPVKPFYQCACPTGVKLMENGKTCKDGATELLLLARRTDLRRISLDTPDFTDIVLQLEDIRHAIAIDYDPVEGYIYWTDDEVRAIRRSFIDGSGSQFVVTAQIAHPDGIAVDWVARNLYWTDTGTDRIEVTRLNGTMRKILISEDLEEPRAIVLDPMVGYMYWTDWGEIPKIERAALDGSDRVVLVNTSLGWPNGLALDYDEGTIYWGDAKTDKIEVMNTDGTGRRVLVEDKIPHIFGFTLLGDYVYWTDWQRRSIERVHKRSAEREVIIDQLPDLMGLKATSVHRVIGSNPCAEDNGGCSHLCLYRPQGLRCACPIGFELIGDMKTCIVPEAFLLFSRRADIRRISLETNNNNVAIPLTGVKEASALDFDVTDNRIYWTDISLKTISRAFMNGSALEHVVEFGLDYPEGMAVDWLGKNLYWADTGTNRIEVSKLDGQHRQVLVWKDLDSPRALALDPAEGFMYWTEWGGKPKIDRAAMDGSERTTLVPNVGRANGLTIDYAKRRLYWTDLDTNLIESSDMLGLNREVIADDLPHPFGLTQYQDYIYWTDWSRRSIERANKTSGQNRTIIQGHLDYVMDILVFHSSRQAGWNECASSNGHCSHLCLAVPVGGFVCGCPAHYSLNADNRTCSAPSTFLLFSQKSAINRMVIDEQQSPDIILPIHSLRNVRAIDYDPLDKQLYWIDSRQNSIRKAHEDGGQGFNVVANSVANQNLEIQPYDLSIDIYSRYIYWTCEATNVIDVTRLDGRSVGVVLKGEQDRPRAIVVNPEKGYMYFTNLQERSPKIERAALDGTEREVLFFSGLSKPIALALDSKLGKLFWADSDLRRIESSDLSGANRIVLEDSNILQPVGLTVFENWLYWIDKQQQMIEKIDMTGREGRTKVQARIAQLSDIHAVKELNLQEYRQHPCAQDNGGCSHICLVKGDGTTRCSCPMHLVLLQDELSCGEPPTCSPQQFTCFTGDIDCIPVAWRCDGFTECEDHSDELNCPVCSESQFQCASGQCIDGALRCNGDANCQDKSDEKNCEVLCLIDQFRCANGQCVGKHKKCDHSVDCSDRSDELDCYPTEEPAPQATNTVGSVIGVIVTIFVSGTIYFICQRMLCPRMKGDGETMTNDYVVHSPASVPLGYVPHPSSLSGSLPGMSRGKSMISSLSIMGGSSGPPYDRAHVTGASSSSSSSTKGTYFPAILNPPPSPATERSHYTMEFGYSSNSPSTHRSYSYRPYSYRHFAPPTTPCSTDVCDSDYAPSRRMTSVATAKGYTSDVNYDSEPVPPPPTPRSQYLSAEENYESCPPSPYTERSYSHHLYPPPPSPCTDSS
# T3 sequence (Q9Y6N7 other isoform, or with tags, fused parts or gaps limits assumed): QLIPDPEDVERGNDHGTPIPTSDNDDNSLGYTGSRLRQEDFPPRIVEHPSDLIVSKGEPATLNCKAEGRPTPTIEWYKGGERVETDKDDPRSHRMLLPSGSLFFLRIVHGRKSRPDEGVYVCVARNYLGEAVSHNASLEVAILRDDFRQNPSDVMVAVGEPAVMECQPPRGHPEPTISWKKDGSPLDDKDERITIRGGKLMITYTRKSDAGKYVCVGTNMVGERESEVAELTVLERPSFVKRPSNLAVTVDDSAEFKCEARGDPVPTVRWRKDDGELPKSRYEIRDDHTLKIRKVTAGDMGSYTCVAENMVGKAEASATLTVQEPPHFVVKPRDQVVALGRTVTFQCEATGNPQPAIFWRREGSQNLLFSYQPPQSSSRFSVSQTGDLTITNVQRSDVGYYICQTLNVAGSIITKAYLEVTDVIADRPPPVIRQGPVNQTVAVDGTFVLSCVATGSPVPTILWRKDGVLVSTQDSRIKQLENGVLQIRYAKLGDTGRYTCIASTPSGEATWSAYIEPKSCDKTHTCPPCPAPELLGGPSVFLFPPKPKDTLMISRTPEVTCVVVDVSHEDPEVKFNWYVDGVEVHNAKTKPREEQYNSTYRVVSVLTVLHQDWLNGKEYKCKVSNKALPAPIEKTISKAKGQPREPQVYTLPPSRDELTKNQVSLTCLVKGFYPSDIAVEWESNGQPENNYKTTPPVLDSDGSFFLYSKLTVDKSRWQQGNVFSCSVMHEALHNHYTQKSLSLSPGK
binder,measurement,setting,value
B1,binding result,[1],no binding
B2,binding result,[1],no binding
B3,binding result,[2],binds
B4,binding result,[3],binds
B5,binding result,[4],no binding
